This note sets out measurements from patent EP4778941A1, “HER3/MET BINDING MOLECULE AND PHARMACEUTICAL USE THEREOF” (priority 2023, dated 2025).

Like-named read-outs stand apart in the source and are kept apart here.

Assay [1] concerns the target Human HER3 and MET proteins together on HER3/MET double-positive cells (human) (UniProt P21860). The experiment in a line: cell-based or functional assay.
Assay [2] has as its target Human HER3 protein on the cell surface (human) (UniProt P21860). Put plainly: cell-based or functional assay.
In assay [3] the target is Human MET protein on the cell surface (human) (UniProt P08581). The experiment in a line: cell-based or functional assay.
Chain of Human MET protein on the cell surface (human) (P08581 25-1390): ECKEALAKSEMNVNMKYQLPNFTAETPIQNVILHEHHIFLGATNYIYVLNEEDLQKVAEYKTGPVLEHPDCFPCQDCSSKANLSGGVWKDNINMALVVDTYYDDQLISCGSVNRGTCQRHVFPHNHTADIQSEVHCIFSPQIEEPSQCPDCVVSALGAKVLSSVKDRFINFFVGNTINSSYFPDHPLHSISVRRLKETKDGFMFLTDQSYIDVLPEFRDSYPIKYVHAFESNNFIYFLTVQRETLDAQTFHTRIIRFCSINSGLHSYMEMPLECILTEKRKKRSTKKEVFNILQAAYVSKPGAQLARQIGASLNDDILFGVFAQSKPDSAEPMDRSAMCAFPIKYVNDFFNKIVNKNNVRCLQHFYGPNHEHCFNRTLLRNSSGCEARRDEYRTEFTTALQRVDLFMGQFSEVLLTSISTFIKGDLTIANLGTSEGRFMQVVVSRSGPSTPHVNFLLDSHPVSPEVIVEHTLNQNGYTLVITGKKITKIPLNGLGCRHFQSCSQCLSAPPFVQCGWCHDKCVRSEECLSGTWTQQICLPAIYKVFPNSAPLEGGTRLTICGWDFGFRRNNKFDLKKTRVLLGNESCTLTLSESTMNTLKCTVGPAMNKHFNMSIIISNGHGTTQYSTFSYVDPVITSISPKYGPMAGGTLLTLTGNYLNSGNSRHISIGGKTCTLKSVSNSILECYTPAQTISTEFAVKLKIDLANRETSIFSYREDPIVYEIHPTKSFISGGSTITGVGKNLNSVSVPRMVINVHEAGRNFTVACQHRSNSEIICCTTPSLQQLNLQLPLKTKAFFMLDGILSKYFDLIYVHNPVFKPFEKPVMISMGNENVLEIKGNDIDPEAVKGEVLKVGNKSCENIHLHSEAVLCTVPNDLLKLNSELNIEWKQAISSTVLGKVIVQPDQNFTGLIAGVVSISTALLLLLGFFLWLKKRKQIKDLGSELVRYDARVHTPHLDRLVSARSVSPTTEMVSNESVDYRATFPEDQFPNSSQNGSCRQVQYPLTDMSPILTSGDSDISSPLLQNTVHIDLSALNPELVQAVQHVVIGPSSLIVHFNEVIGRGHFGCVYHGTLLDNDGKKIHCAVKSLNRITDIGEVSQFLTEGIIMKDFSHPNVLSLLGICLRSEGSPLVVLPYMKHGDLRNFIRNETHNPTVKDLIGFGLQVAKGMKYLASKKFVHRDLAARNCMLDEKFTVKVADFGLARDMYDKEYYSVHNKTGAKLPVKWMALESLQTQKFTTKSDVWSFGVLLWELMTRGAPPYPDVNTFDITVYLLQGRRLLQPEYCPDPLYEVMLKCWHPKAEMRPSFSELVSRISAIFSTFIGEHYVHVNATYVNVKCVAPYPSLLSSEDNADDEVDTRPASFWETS
Assay [4] addresses Human HER3 protein on the cell surface (human) (UniProt P21860). The experiment in a line: FACS on MDA-MB-453 cells (HER3 single-positive).
Assay [5] addresses Human MET protein on the cell surface (human) (UniProt P08581). Put plainly: FACS on NCI-H1703 cells (MET single-positive).
Assay [6] has as its target Human HER3 and MET proteins together on HER3/MET double-positive cells (human) (UniProt P21860). The experiment in a line: FACS on HCC827 Osimertinib-resistant cells (HER3/MET double-positive).
For assay [7] the target is unchanged. The experiment in a line: cell-based or functional assay. This is another data set of the same source.

Take IgG1 isotype control antibody: the Minimum cell viability (%) was 90.9% in assay [1], 92.9% in assay [2], 78.6% in assay [3] and 102% in assay [7]. Further, the Maximum fluorescence value in assay [4], in assay [5] and in assay [6] was 74 throughout.
